In patent US20210277098A1 (MITSUBISHI TANABE PHARMA, published 2021):
No end group written: not given here. *: point of attachment. Biotin = O=C1N[C@H]2[C@H](CS[C@H]2CCCCC(=O)*)N1

T1: mouse RGMa protein (R&D systems, 2458-RG) (mouse) (UniProt Q6PCX7)
T1 sequence: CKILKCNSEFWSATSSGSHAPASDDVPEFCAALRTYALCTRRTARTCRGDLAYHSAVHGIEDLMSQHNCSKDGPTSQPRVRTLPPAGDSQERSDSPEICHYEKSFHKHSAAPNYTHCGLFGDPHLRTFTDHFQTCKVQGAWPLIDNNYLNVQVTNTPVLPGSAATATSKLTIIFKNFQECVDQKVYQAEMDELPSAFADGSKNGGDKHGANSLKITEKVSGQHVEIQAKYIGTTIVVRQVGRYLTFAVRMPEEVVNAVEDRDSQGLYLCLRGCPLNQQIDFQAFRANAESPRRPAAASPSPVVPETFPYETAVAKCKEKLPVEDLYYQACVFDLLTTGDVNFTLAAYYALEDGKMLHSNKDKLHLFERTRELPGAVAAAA

T2: Human RGMa protein (R&D systems, 2459-RM) (human, UniProt Q96B86 48-422, limits assumed)
T2 construct: Bought protein; also called Recombinant RGMa protein
T2 sequence: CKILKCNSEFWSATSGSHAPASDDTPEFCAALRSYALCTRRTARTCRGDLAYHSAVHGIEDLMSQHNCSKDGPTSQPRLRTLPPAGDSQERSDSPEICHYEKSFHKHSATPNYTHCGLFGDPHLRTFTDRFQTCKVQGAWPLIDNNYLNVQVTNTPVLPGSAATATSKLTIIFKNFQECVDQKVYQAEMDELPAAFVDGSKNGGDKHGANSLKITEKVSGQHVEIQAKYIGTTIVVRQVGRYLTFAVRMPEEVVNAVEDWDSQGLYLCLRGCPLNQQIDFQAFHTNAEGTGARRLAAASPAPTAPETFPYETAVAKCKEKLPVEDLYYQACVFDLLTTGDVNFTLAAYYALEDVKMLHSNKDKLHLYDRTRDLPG

T3: C-terminal domain of human RGMa protein (prepared in Example 1), Pro 169 to Gly 422 with C-terminal histidine … (human, UniProt Q96B86 169-422)
T3 construct: Secreted from CHO cells and purified on a nickel column; also called Human RGMa C-terminal domain; recombinant human RGMa protein; not shown: histidine tag at the C terminus
T3 sequence: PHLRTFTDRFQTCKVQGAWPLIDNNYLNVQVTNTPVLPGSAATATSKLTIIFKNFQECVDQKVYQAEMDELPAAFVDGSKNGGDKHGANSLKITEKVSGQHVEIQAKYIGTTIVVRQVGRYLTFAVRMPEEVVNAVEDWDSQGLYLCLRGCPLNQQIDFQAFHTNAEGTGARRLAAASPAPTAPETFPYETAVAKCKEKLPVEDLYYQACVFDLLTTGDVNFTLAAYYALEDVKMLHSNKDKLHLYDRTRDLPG

T4: biotinylated SGSG-spacer peptide of human RGMa Lys 367 to Ala 377 (human)
T4 construct: One of 83 peptides of 11 residues, immobilised on avidin-coated plates
T4 peptide: Biotin-SGSGKLPVEDLYYQA

T5: biotinylated SGSG-spacer peptide of human RGMa Ile 325 to Glu 335 (human)
T5 construct: One of 83 peptides of 11 residues, immobilised on avidin-coated plates
T5 peptide: Biotin-SGSGIDFQAFHTNAE

T6: biotinylated SGSG-spacer peptide of human RGMa Glu 298 to Asp 308 (human)
T6 construct: One of 83 peptides of 11 residues, immobilised on avidin-coated plates
T6 peptide: Biotin-SGSGEEVVNAVEDWD

T7: biotinylated SGSG-spacer peptide of human RGMa Asn 322 to Thr 332 (human)
T7 construct: One of 83 peptides of 11 residues, immobilised on avidin-coated plates
T7 peptide: Biotin-SGSGNQQIDFQAFHT

T8: biotinylated SGSG-spacer peptide of human RGMa Val 301 to Gly 311 (human)
T8 construct: One of 83 peptides of 11 residues, immobilised on avidin-coated plates
T8 peptide: Biotin-SGSGVNAVEDWDSQG


Legend:
[1] = target: T1, mouse RGMa protein (R&D systems, 2458-RG) (mouse); test: SPR (Proteon XPR36), antigen amine-coupled on a GLC chip, antibody as analyte
[2] = target: Human RGMa protein (R&D systems, 2459-RM) (human) (UniProt Q96B86); test: as above
[3] = target: T2, Human RGMa protein (R&D systems, …); test: as above
Procedure: (§1) The affinity of the test antibodies (r116A3 and r70E4) and r5F9 (Comparative Example) for RGMa protein were measured by the surface plasmon resonance (SPR) method using Proteon XPR36 (Bio-Rad).
(§2) Human RGMa protein (R&D Systems, 2459-RM), the C-terminal domain of human RGMa protein (prepared in Example 1) or mouse RGMa protein (R&D Systems, 2458-RG) diluted to 10 μg/mL with 10 mM acetate buffer (pH4.5) was immobilized on a GLC sensor chip by amine coupling method.

[4] = target: T3, C-terminal domain of human RGMa protein …; test: as above
Procedure: as §1, §2

[5] = target: T1, mouse RGMa protein (R&D systems, 2458-RG) (mouse); test: SPR (Proteon XPR36), ratio of Kd values against r5F9
[6] = target: T4, biotinylated SGSG-spacer peptide of …; test: peptide scanning ELISA, biotinylated peptides on avidin-coated plates
Procedure: (§3) Epitopes to which the antibodies bind were determined by the peptide scanning method. A total of 83 kinds of peptides were synthesized by fusing the N-terminal side of the amino acid sequences consisting of 11 consecutive residues shifted by 3 residues contained in Arg 172 to Ala 424 of the human RGMa protein (SEQ ID NO: 1 in Sequence Listing) with a spacer sequence (SGSG) with biotinylated N terminus (SEQ ID NO: 46 in Sequence Listing). After immobilizing the peptides on avidin-coated plates, the test antibodies (B5.116A3 and B5.70E4) were allowed to react. Subsequently, a peroxidase-labeled rabbit anti-mouse Ig antibody (Dako, P026002) was allowed to react. After a substrate solution was added and color developed for a certain time, the absorbance was measured with a plate reader.

[7] = target: T5, biotinylated SGSG-spacer peptide of …; test: as above
Procedure: as §3

[8] = target: T6, biotinylated SGSG-spacer peptide of …; test: as above
Procedure: as §3

[9] = target: T7, biotinylated SGSG-spacer peptide of …; test: as above
Procedure: as §3

[10] = target: T8, biotinylated SGSG-spacer peptide of …; test: as above
Procedure: as §3

Kd [1]	Kd [2]	Kd [3]	Kd [4]	times stronger binding than r5F9 [5]	binding result [6]	binding result [7]	binding result [8]	binding result [9]	binding result [10]	Molecule
8.98 nM	1.59 nM									recombinant rat mouse chimeric antibody r5F9 (Comparative Example)
174 nM		2.43 nM	1.12 nM							recombinant mouse antibody r70E4 (antibody, mouse IgG2b, kappa, V domains shown, Recombinant form of B5.70E4 expressed in HEK293F cells) VH: DVKLQESGPGLVKPSQSLSLTCSVTGYSITTSYYWNWIRQFPGNKLEWMGYISYDGTNNYNPSLKNRISITRDTSKNQFFLRLNSVTTEDTATYYCAGSFGYSQGTLVTVSA VL: DVVMTQTPLSLPVSLGDQASISCRSSQSLVHSNGNTYLHWYLQRPGQSPKLLIYKVSNRFSGVPDRFSGSGSGTDFTLKISRVEAEDLGLYFCSQSTHVPYTFGGGTKLEIKR
0.201 nM		0.0487 nM	0.0568 nM	44 times						recombinant mouse antibody r116A3 (antibody, mouse IgG2b, kappa, V domains shown, Recombinant form of B5.116A3 expressed in HEK293F cells) VH: EVKLEESGGGLVQPGGSMKLSCAASGFTFSDAWMDWVRQSPEKGLEWVAEIRSKANNHATYYAESVKGRFTISRDDSKRSVYLQMNNLRAEDTGIYYCTRRDGAYWGQGTLVTVSA VL: DIQMTQTTSSLSASLGDRVTISCRASQDISSYLNWYQQKPDGTVKLLIYYTSRLHSGVPSRFSGSGSGTDYSLTISNLEQEDIATYFCQQLNTLPWTFGGGTKLEIKR
					binds	binds	binds	binds	binds	mouse anti-human RGMa monoclonal antibody B5.116A3 (antibody, mouse IgG2b, kappa, V domains shown) VH: EVKLEESGGGLVQPGGSMKLSCAASGFTFSDAWMDWVRQSPEKGLEWVAEIRSKANNHATYYAESVKGRFTISRDDSKRSVYLQMNNLRAEDTGIYYCTRRDGAYWGQGTLVTVSA VL: DIQMTQTTSSLSASLGDRVTISCRASQDISSYLNWYQQKPDGTVKLLIYYTSRLHSGVPSRFSGSGSGTDYSLTISNLEQEDIATYFCQQLNTLPWTFGGGTKLEIKR
